Sequences and labels used below:
B1: ScPCNA (natural protein, Saccharomyces cerevisiae, UniProt P15873 1-258, looked up)
chain: MLEAKFEEASLFKRIIDGFKDCVQLVNFQCKEDGIIAQAVDDSRVLLVSLEIGVEAFQEYRCDHPVTLGMDLTSLSKILRCGNNTDTLTLIADNTPDSIILLFEDTKKDRIAEYSLKLMDIDADFLKIEELQYDSTLSLPSSEFSKIVRDLSQLSDSINIMITKETIKFVADGDIGSGSVIIKPFVDMEHPETSIKLEMDQPVDLTFGAKYLLDIIKGSSLSDRVGIRLSSEAPALFQFDLKSGFLQFFLAPKFNDEE
notes: proliferating cell nuclear antigen (PCNA), Saccharomyces cerevisiae; also called S. cerevisiae PCNA; source: E. coli BL21-DE3, purified
B2: CaPCNA (natural protein, Candida albicans, UniProt Q5AMN0 1-259, looked up)
chain: MLEGKFEEAALLKKVVEAIKDCVKKCNFNCSEHGITVQAVDDSRVLLVSLLIGQTSFSEYRCDRDVTLGIDLESFSKIIKSANNEDFLTLLAEDSPDQIMAILEEKQKEKISEYSLKLMDIDSEFLQIDDMEYDAVVNMPSSDFAKLVRDLKNLSESLRVVVTKDSVKFTSEGDSGSGSVILKPYTNLKNERESVTISLDDPVDLTFGLKYLNDIVKAATLSDVITIKLADKTPALFEFKMQSGGYLRFYLAPKFDDDE
notes: proliferating cell nuclear antigen (PCNA), Candida albicans; also called C. albicans PCNA; source: E. coli BL21-DE3, purified
B3: 29-mer ubz peptide of CaPolη (607-635) (peptide)
peptide: KTKKCSRCKLSVDDPVEHNDYHIAMDLSN
notes: also called wild-type ubz peptide; WT UBZ peptide; source: synthetic peptide (China peptides Co Ltd, 98% purity)
B4: CaPCNA-90 (P253A, K254A) (natural protein)
chain: MLEGKFEEAALLKKVVEAIKDCVKKCNFNCSEHGITVQAVDDSRVLLVSLLIGQTSFSEYRCDRDVTLGIDLESFSKIIKSANNEDFLTLLAEDSPDQIMAILEEKQKEKISEYSLKLMDIDSEFLQIDDMEYDAVVNMPSSDFAKLVRDLKNLSESLRVVVTKDSVKFTSEGDSGSGSVILKPYTNLKNERESVTISLDDPVDLTFGLKYLNDIVKAATLSDVITIKLADKTPALFEFKMQSGGYLRFYLAAAFDDDE
notes: source: E. coli BL21-DE3, purified

The subject of data set [1] is CaPCNA. As to the kind of experiment: ITC binding to CaPCNA. Details: species or system Candida albicans. To be noted: 25 °C, pH 7.4, CaPCNA injected, about 10 μM Polη mutant in cell, negatives repeated at various concentrations.
Excerpt: To identify a region of CaPolη involved in PCNA interaction, we generated a deletion construct by inserting a stop codon at amino acid position 513 (K513) of CaPolη. […] The wild-type and truncated CaPolη were purified, and their interaction with CaPCNA was monitored by isothermal calorimetry (ITC) analysis. […] Since CaPolη functionally complements ScPolη and protects the fungal cells from UV-induced DNA damages ([17], [25], [26]), to further strengthen our finding, various Polη orfs were expressed under the constitutive ADH1 promoter in rad30Δ and rad30Δrev3Δ S. cerevisiae strains, and susceptibility to UV irradiation was determined.
To map the precise location of PCNA binding, another deletant CaPolη 1 to 601 aa was constructed that lacks the last 39 residues encompassing the ubz domain but retains Seq-3 and Seq-4 (Fig. 2A). […] To ascertain the function of ubz domain, two D626A and H624A, H628A of CaPolη mutants were generated and their ability to suppress UV sensitivity of Polη-deficient S. cerevisiae strains was examined. […] Similarly, UV-induced mutation rate was estimated by counting the number of canavanine-resistant colonies of various S. cerevisiae strains harboring CaPolη constructs. […] Subsequently, ITC and GST-pull-down assays were carried out to determine the role of ubz in PCNA binding.
In data set [2] the target is B3. As to the kind of experiment: ITC; PCNA (200 μM, counted as a trimer) in the syringe, Polη (10 μM) or ubz peptide (20 μM) in the cell; 25 injections of 1.5 μl; 25 °C; 20 mM HEPES pH 7.4, 150 mM NaCl; single-site binding model. To be noted: both partners purified.
Another data set addresses T1, ScPolη (Saccharomyces cerevisiae, UniProt Q04049 1-632).
T1 construct: DNA polymerase eta (Rad30), Saccharomyces cerevisiae, 632 aa, wild type; also called ScRad30; S. cerevisiae DNA polymerase eta; source: purified
T1 sequence (looked up): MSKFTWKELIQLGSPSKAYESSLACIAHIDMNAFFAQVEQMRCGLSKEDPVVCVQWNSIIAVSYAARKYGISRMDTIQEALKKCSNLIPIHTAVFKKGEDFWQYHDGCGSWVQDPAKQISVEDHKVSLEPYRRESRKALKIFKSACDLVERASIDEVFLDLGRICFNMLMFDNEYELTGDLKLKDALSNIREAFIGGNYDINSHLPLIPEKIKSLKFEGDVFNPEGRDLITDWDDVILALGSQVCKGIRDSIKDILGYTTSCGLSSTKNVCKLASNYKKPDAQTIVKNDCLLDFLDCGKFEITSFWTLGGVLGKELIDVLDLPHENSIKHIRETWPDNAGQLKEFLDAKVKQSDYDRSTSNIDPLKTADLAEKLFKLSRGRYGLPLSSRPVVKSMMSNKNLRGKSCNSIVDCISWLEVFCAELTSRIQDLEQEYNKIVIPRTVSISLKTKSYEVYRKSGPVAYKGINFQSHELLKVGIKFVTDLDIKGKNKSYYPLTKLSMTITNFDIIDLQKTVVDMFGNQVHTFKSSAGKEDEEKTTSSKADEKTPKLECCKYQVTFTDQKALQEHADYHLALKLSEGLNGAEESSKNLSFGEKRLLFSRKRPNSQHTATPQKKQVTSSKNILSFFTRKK
The description is as above. The following applies: both partners purified.

The target in data set [3] is wild-type CaPolη protein (1–640 aa) (Candida albicans). The data set is described as above.
Data set [4] concerns the molecule itself. The data set is described as follows: SEC; about 10 μg of purified CaPCNA and CaPolη (1:1 M ratio) incubated 60 min at room temperature, or CaPCNA alone; Superdex 200 PC3.2/30; 50 mM HEPES pH 7.5, 150 mM NaCl, 10% glycerol; 0.05 ml/min, 4 °C.
For data set [5], the target named is B2. The data set is described as follows: ITC; PCNA (200 μM, counted as a trimer) in the syringe, Polη (10 μM) or ubz peptide (20 μM) in the cell; 25 injections of 1.5 μl; 25 °C; 20 mM HEPES pH 7.4, 150 mM NaCl; single-site binding model. The following applies: both partners purified. A general note: Isothermal titration calorimetry measures the heat released or taken up as one component is titrated into another.

For the data set “CaPCNA-90 (P253A, K254A)”, the target named is B4. The data set is described as above. To be noted: both partners purified.
In data set [6] the target is B1. The data set is described as above. To be noted: both partners purified.
For data set [7], the target named is T2, ScPCNA (Saccharomyces cerevisiae, UniProt P15873).
T2 construct: made in house; host or cells: E. coli BL21-DE3
T2 sequence (P15873 1-258): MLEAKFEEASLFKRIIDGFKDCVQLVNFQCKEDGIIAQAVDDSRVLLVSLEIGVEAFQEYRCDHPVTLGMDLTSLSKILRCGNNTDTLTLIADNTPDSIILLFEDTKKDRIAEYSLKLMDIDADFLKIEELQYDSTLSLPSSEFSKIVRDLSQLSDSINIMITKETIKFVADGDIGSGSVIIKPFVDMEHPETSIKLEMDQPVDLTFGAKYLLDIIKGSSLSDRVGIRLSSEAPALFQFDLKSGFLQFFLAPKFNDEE
The data set is described as follows: ITC binding to ScPCNA. To be noted: 25 °C. From the text:
To understand whether any sequence or structural differences of the ubz domains in these Polηs have an impact on functional differences, we used the solution structure of the ubz domain of human Polη as a template and determined the structure of the ubz domain of both Sc- and Ca-Polηs by computational modeling (Fig. 3A). […] The two cysteines are located on the fingertip made by the two β-strands, and the two histidines are located on the α-helix. […] Next we examined whether the ubz peptide can inhibit the binding of PCNA to Polη. An equimolar mixture of the ubz peptide and PCNA was injected into the calorimetric cell having CaPolη to examine the interference of peptide on the interaction between PCNA and Polη by ITC.
All the purified proteins and purchased peptides were dialyzed overnight against 1 l of a buffer containing 20 mM HEPES (pH 7.4) and 150 mM NaCl at 4 °C to ensure complete removal of DTT and glycerol from the protein storage buffer, which could affect the heat exchange while they interact. ITC assays were performed using a Malvern MicroCal PEAQ-ITC calorimeter. Before the experiment, the cell and the syringe were thoroughly washed with water, followed by cell rinsing with a buffer. A control run was carried out to make sure that the buffer is not participating in heat change where the cell was filled with 300 μl of a buffer and concentrated CaPCNA or ScPCNA protein (200 μM) in the syringe. ITC was performed using various Polηs or UBZ peptide or UBZ mutant peptide in the sample cell and CaPCNA or ScPCNA or a mixture of CaPCNA+ WT UBZ peptide in the syringe. Twenty-five injections of 1.5 μl of protein from the syringe were given at intervals of 120 s with an initial delay of 120 s at 25 °C. The data were analyzed to determine the various kinetic parameters using a single-site binding model provided in the ITC analysis software package.

With “607-KTKKCSRCKLSVDDPVEANDYAIAMDLSN-635 [mutant peptide]”, the “Binding to CaPCNA by ITC (in words)” value in the data set on CaPCNA [1] is on record as “did not show any sign of binding”.

For the molecule B1, in data set [2], the dH was -24.2 kcal/mol and the “stoichiometry N” value was determined as 0.34. In the data set with ScPolη, the Kd was 15.1 µM, the dH was -79.9 kcal/mol and the “stoichiometry N” value came to 0.31.

As to B2, in data set [3], the Kd is 7.15 µM, the dH was -22.1 kcal/mol and the stoichiometry N worked out at 0.315. Also, in data set [2], the dH was -80 kcal/mol and the “stoichiometry N” value was found to be 0.355. In addition, the “stoichiometry N” value in [4] came to 3.

B3: the Kd with CaPCNA [5] is 19.8 µM; with CaPCNA-90 (P253A, K254A), 39 µM; with ScPCNA [6], 15.6 µM.

Turning to B4, in [2], the dH was -79.9 kcal/mol and the “stoichiometry N” value came out at 0.316.

B5: ScPolη: Saccharomyces cerevisiae DNA polymerase eta (protein)
chain: MSKFTWKELIQLGSPSKAYESSLACIAHIDMNAFFAQVEQMRCGLSKEDPVVCVQWNSIIAVSYAARKYGISRMDTIQEALKKCSNLIPIHTAVFKKGEDFWQYHDGCGSWVQDPAKQISVEDHKVSLEPYRRESRKALKIFKSACDLVERASIDEVFLDLGRICFNMLMFDNEYELTGDLKLKDALSNIREAFIGGNYDINSHLPLIPEKIKSLKFEGDVFNPEGRDLITDWDDVILALGSQVCKGIRDSIKDILGYTTSCGLSSTKNVCKLASNYKKPDAQTIVKNDCLLDFLDCGKFEITSFWTLGGVLGKELIDVLDLPHENSIKHIRETWPDNAGQLKEFLDAKVKQSDYDRSTSNIDPLKTADLAEKLFKLSRGRYGLPLSSRPVVKSMMSNKNLRGKSCNSIVDCISWLEVFCAELTSRIQDLEQEYNKIVIPRTVSISLKTKSYEVYRKSGPVAYKGINFQSHELLKVGIKFVTDLDIKGKNKSYYPLTKLSMTITNFDIIDLQKTVVDMFGNQVHTFKSSAGKEDEEKTTSSKADEKTPKLECCKYQVTFTDQKALQEHADYHLALKLSEGLNGAEESSKNLSFGEKRLLFSRKRPNSQHTATPQKKQVTSSKNILSFFTRKK
modifications: left off: GST, N-terminal, state not stated
notes: Saccharomyces cerevisiae DNA polymerase eta
For B5, in the data set with ScPCNA [7] (20 mM HEPES pH 7.4, 150 mM NaCl, syringe ScPCNA 200 μM, cell 10 μM ScPolη or 20 μM ubz peptide, single-site model, repeated twice), the affinity, expressed as Kd, was 15.1 µM. In the data set with ScPCNA [7] (pH 7.4, ScPCNA 200 μM in syringe), the Stoichiometry is recorded as 0.31. In the data set with ScPCNA [7] (pH 7.4, ScPCNA, unit not given), the ΔG was −6.58, the ΔH is −79.9 and the “−TΔS” value stood at 73.3.

For orientation: stoichiometry N means a count of units in the complex or per binding partner. The term Kd denotes the constant that tells how readily two partners part at equilibrium. High values mean lower affinity, low ones higher affinity.

Source of the values: article PMC8784325, “The ubiquitin-binding domain of DNA polymerase η directly binds to DNA clamp PCNA and regulates translesion DNA synthesis” (The Journal of Biological Chemistry, 2021).
